# Experimental data taken from US20110195083A1.
# Assays:
# Assay in all cases: cell-based or functional assay
# [1] = molecular target: HIV-1 6535 envelope protein (Env) on pseudovirus (HIV-1 strain 6535)
# [2] = molecular target: HIV-1 BX08 envelope protein (Env) on pseudovirus (HIV-1 strain BX08)
# [3] = molecular target: HIV-1 BaL envelope protein (Env) on pseudovirus (HIV-1 strain Bal)
substance,measurement,setting,value
CD4-mimic peptide CD4M33,"neutralization IC50, CD4M33 alone",[1],0.721 µg/mL
same,"neutralization IC50, CD4M33 concentration in combination with serum B714",[1],0.431 µg/mL
same,"neutralization IC50, CD4M33 concentration in combination with serum B716",[1],0.431 µg/mL
same,"neutralization IC50, CD4M33 concentration in combination with serum B718",[1],0.481 µg/mL
same,"neutralization IC50, CD4M33 concentration in combination with serum B720",[1],0.189 µg/mL
same,"neutralization IC50, CD4M33 alone",[2],0.173 µg/mL
same,"neutralization IC50, CD4M33 concentration in combination with serum B714",[2],0.036 µg/mL
same,"neutralization IC50, CD4M33 concentration in combination with serum B716",[2],0.036 µg/mL
same,"neutralization IC50, CD4M33 concentration in combination with serum B718",[2],0.028 µg/mL
same,"neutralization IC50, CD4M33 concentration in combination with serum B720",[2],0.014 µg/mL
same,"neutralization IC50, CD4M33 alone",[3],> 0.25 µg/mL
same,"neutralization IC50, CD4M33 concentration in combination with serum B714",[3],0.048 µg/mL
same,"neutralization IC50, CD4M33 concentration in combination with serum B716",[3],0.057 µg/mL
same,"neutralization IC50, CD4M33 concentration in combination with serum B718",[3],0.045 µg/mL
same,"neutralization IC50, CD4M33 concentration in combination with serum B720",[3],0.017 µg/mL
